The results in this text go back to patent publication US20190071490A1 (BETH ISRAEL DEACONESS MEDICAL CENTER, published 2019).

The labels stand for the following.
B1: human α-CGRP 1-36-COOH (peptide)
peptide: ACDTATCVTHRLAGLLSRSGGVVKNNFVPTNVGSKA-OH
modifications: ends and bridges not checked
notes: also called 1-36 (not amidated at the C-terminus)
B2: Human adrenomedullin (1-52) (peptide)
peptide: YRQSMNNFQGLRSFGCRFGTCTVQKLAHQIYQFTDKDKDNVAPRSKISPQGY-NH2
modifications: ends and bridges not checked
B3: human α-CGRP 1-19-COOH (peptide)
peptide: ACDTATCVTHRLAGLLSRS-OH
modifications: ends and bridges not checked
B4: rat α-CGRP (1-37) (peptide)
peptide: SCNTATCVTHRLAGLLSRSGGVVKDNFVPTNVGSEAF-NH2
modifications: ends and bridges not checked; also: N-terminal biotin when captured on the SA chip
notes: also called rat α (1-37); α-rat
B5: Human amylin (1-37) (peptide)
peptide: KCNTATCATQRLANFLVHSSNNFGAILSSTNVGSNTY-NH2
modifications: ends and bridges not checked
B6: human α-CGRP 19-36 (peptide)
peptide: SGGVVKNNFVPTNVGSKA-OH
notes: also called 19-36-COOH; peptide fragment 19-36
B7: Human calcitonin (1-32) (peptide)
peptide: CGNLSTCMLGTYTQDFNKFHTFPQTAIGVGAP-NH2
modifications: ends and bridges not checked
B8: human α-CGRP 19-37-COOH (peptide)
peptide: SGGVVKNNFVPTNVGSKAF-OH
notes: also called 19-37 (not amidated at the C-terminus)
B9: human α-CGRP K35M (19-37) (peptide)
peptide: SGGVVKNNFVPTNVGSMAF-NH2
modifications: also: N-terminal biotin when on the chip
notes: the entry already carries K35M
B10: human α-CGRP P29A (19-37) (peptide)
peptide: SGGVVKNNFVATNVGSKAF-NH2
notes: the entry already carries P29A
B11: human α-CGRP F37A (19-37) (peptide)
peptide: SGGVVKNNFVPTNVGSKAA-NH2
notes: the entry already carries F37A
B12: human α-CGRP K35A (19-37) (peptide)
peptide: SGGVVKNNFVPTNVGSAAF-NH2
modifications: also: N-terminal biotin when on the chip
notes: the entry already carries K35A
B13: human α-CGRP K35E (19-37) (peptide)
peptide: SGGVVKNNFVPTNVGSEAF-NH2
modifications: also: N-terminal biotin when on the chip
notes: the entry already carries K35E
B14: G1 variant M71 Fab (Fab, V domains shown)
VH: EVQLVESGGGLVQPGGSLRLSCAASGFTFSNYWISWVRQAPGKGLEWVAEIRSKSDYSATHYAEAVKGRFTISRDNAKNSLYLQMNSLRAEDTAVYYCTVYFDYGLAIQNYWGQGTLVTVSS
VL: EIVLTQSPATLSLSPGERATLSCKASKNVGTYVSWYQQKPGQAPRLLIYGASNRYIGIPARFSGSGSGTDFTLTISSLEPEDFAVYYCSQSYNYPYTFGQGTKLEIK
notes: Fab; constant domains as m1; printed L561 read as L56I
B15: G1 variant M82 Fab (Fab, V domains shown)
VH: B14 VH with K54E, Y57N
VL: B14 VL with G30V, A51H, I56T
notes: Fab; constant domains as m1
B16: G1 variant M73 Fab (Fab, V domains shown)
VH: B14 VH with Y57N, S58Y, E64D
VL: B14 VL with I56S
notes: Fab; constant domains as m1
B17: G1 variant M76 Fab (Fab, V domains shown)
VH: B14 VH with K54E, Y57G
VL: B14 VL with G30S, G50A, I56T
notes: Fab; constant domains as m1
B18: G1 variant M80 Fab (Fab, V domains shown)
VH: B14 VH with Y57N, S58V
VL: B14 VL with G30S
notes: as for B14
B19: G1 variant M83 Fab (Fab, V domains shown)
VH: B14 VH with Y57N, S58M, H61F
VL: B14 VL with G30V, A51H, I56T
notes: Fab; constant domains as m1
B20: G1 variant M79 Fab (Fab, V domains shown)
VH: B14 VH with Y57P
VL: B14 VL with G30S, G50A, I56T
notes: Fab; constant domains as m1
B21: G1 variant M74 Fab (Fab, V domains shown)
VH: B14 VH with Y57S
VL: B14 VL with I56S
notes: Fab; constant domains as m1
B22: G1 variant M81 Fab (Fab, V domains shown)
VH: B14 VH with Y57N, S58E
VL: B14 VL with G30S, I56S
notes: Fab; constant domains as m1
B23: G1 variant M84 Fab (Fab, V domains shown)
VH: B14 VH with K54N, Y57N
VL: B14 VL with G30V, A51H, I56T
notes: Fab; constant domains as m1
B24: G1 variant M78 Fab (Fab, V domains shown)
VH: B14 VH with Y57N, S58T
VL: B14 VL with G30S, G50A, I56T
notes: Fab; constant domains as m1
B25: G1 variant M77 Fab (Fab, V domains shown)
VH: B14 VH with Y57D
VL: B14 VL with G30S, G50A, I56T
notes: Fab; constant domains as m1
B26: G1 variant M75 Fab (Fab, V domains shown)
VH: B14 VH with Y57V
VL: B14 VL with I56S
notes: Fab; constant domains as m1
B27: G1 variant M72 Fab (Fab, V domains shown)
VH: B14 VH with Y57A
VL: B14 VL with I56S
notes: Fab; constant domains as m1
B28: human α-CGRP 1-13-COOH (peptide)
peptide: ACDTATCVTHRLA-OH
modifications: ends and bridges not checked

For test [1], the target named is antibody G1 Fab fragment. Put plainly: Biacore competition: 50 nM G1 Fab with 10 µM peptide over human α-CGRP on chip. The source says:
(§1) Y axis represents percentage of binding blocked by the presence of the competing peptide compared with the binding in the absence of the competing peptide.
(§2) All these peptides are amidated at the C-terminus.
Target sequence in this assay (VH, as listed by the source, chain 1 of 2): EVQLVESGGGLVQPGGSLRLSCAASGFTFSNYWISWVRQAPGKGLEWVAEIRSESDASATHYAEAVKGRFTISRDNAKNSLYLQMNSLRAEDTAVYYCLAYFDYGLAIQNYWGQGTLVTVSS
Target sequence in this assay (VL, as listed by the source, chain 2 of 2): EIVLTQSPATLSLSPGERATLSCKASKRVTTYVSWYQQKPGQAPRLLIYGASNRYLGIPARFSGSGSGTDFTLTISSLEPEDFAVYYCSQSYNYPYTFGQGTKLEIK
(In general: SPR reads the build-up and loss of mass on a sensor chip optically.)

The target of test [2] is antibody G1 Fab fragment. Put plainly: Biacore competition: G1 Fab (50 nM) pre-incubated 1 h with 10 µM competing peptide, then flowed over N-biotinylated human α-CGRP on SA chip; percent of binding to chip-bound human α-CGRP blocked.
Text: as §1, §2
Target sequence in this assay (VH, as listed by the source, chain 1 of 2): as the sequence (VH, as listed by the source, chain 1 of 2) above
Target sequence in this assay (VL, as listed by the source, chain 2 of 2): as the sequence (VL, as listed by the source, chain 2 of 2) above

Test [3] deals with antibody G1 Fab fragment. Description: Biacore competition: G1 Fab (50 nM) pre-incubated with competing peptide, flowed over human α-CGRP on SA chip.
Text: as §1, §2

The test “rat α-CGRP (1-37)” deals with B4. Description: Biacore, 37°C, Fab over CGRP on SA chip. In a few lines: (§3)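 Fab analyte flowed over N-biotinylated CGRP captured at low density on a streptavidin chip in HBS-EP (pH 7.4), 1-min injections at 100 μL/min, at least 10 min dissociation.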
The target in a further test is T1, human α-CGRP 1-37 (WT) (human, C-terminal amide; N-terminal biotin when captured on the SA chip; 125I-labelled in the radioligand assay).
T1 construct: also called α-human
T1 peptide: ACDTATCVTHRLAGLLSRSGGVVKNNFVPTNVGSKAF
Put plainly: Biacore, 37°C, Fab over CGRP on SA chip. The gist of the method: as §3

Where a chain is given by its changes, count along the chain named. In names and notes the source's numbering stands. Ends that are not written are not given here.

On to B1, for which the “percentage of binding blocked” value with antibody G1 Fab fragment [1] was roughly 40%. Besides, in the test with antibody G1 Fab fragment [2], the “% Binding Blocked” value stood at 40.6%.

Consider B2, for which the binding result with antibody G1 Fab fragment [3] was “no binding (tested: 10 µM)”.

For B3, the binding result with antibody G1 Fab fragment [3] was “no binding (tested: 10 µM)”.

B4: in the test with antibody G1 Fab fragment [1], the “percentage of binding blocked” value was 100%. Besides, the “% Binding Blocked” value with antibody G1 Fab fragment [2] came out at 100%.

Turning to B5, the binding result with antibody G1 Fab fragment [3] is “no binding (tested: 10 µM)”.

B6: the “% Binding Blocked” value in the test with antibody G1 Fab fragment [2] was found to be 0.6%. The binding result with antibody G1 Fab fragment [3] is given as “no binding (tested: 10 µM)”.

For B7, the binding result in the test with antibody G1 Fab fragment [3] is recorded as “no binding (tested: 10 µM)”.

On to B8, for which the “% Binding Blocked” value in the test with antibody G1 Fab fragment [2] came to 83.3%.

Consider B9, for which the “percentage of binding blocked” value with antibody G1 Fab fragment [1] came to 100%. For the same molecule, the “% Binding Blocked” value with antibody G1 Fab fragment [2] was 100%.

For B10, the “percentage of binding blocked” value with antibody G1 Fab fragment [1] was 100%. Moreover, the “% Binding Blocked” value with antibody G1 Fab fragment [2] was determined as 100%.

B11: in the test with antibody G1 Fab fragment [2], the “% Binding Blocked” value amounted to 91.7%.

Take B12: the “percentage of binding blocked” value with antibody G1 Fab fragment [1] was 100%. Also, the “% Binding Blocked” value in the test with antibody G1 Fab fragment [2] worked out at 100%.

For B13, the “percentage of binding blocked” value with antibody G1 Fab fragment [1] is 100%. Besides, the “% Binding Blocked” value with antibody G1 Fab fragment [2] is 100%.

Usually Kd stands for the concentration at which binding is half-saturated. The low end stands for tighter binding, the high end for weaker binding. As usually defined, the koff is a measure of how fast the partners let go of each other. As to B14, the dissociation constant Kd turned out to be 118 nM with rat α-CGRP (1-37) and 8 nM in the test with human α-CGRP 1-37 (WT). The results for the koff with rat α-CGRP (1-37) and with human α-CGRP 1-37 (WT) were 0.00212 s⁻¹ and 0.00128 s⁻¹, respectively.

In the test with rat α-CGRP (1-37), B15 came in with a dissociation constant Kd of 388 nM and a koff of 0.00699 s⁻¹. Also, in the test with human α-CGRP 1-37 (WT), the Kd came to 5.48 nM and the koff came out at 0.000877 s⁻¹.

On to B16, for which the Kd in the test with rat α-CGRP (1-37) came out at 167 nM; with human α-CGRP 1-37 (WT), 1.59 nM. Also, the results for the koff with rat α-CGRP (1-37) and in the test with human α-CGRP 1-37 (WT) were 0.003 s⁻¹ and 0.000255 s⁻¹, respectively.

For B17, in the test with rat α-CGRP (1-37), the affinity, expressed as Kd, was 64.4 nM and the koff was 0.00116 s⁻¹. In the test with human α-CGRP 1-37 (WT), the Kd was found to be 2.28 nM and the off-rate (koff) was found to be 0.000364 s⁻¹.

Turning to B18, the Kd with rat α-CGRP (1-37) is 5520 nM; with human α-CGRP 1-37 (WT), 13.1 nM. The koff with rat α-CGRP (1-37) stood at 0.0993 s⁻¹; with human α-CGRP 1-37 (WT), 0.00209 s⁻¹.

Regarding B19, in the test with rat α-CGRP (1-37), the binding result is “no binding”. For the same molecule, in the test with human α-CGRP 1-37 (WT), the affinity, expressed as Kd, was 5.83 nM and the off-rate (koff) turned out to be 0.000933 s⁻¹.

On to B20, for which the Kd turned out to be 10600 nM in the test with rat α-CGRP (1-37) and 8.06 nM in the test with human α-CGRP 1-37 (WT). In addition, the koff worked out at 0.19 s⁻¹ with rat α-CGRP (1-37) and 0.00129 s⁻¹ with human α-CGRP 1-37 (WT).

B21: in the test with rat α-CGRP (1-37), binding was put at a Kd of 335 nM and the off-rate constant (koff) is 0.00603 s⁻¹. In the test with human α-CGRP 1-37 (WT), this molecule returned a Kd of 3.73 nM and a koff of 0.000597 s⁻¹.

As for B22, in the test with rat α-CGRP (1-37), the Kd amounted to 238 nM and the koff is 0.00429 s⁻¹. Further, in the test with human α-CGRP 1-37 (WT), the Kd stood at 3.06 nM and the koff was determined as 0.00049 s⁻¹.

Turning to B23, in the test with rat α-CGRP (1-37), the Kd worked out at 978 nM and the off-rate (koff) was determined as 0.0176 s⁻¹. For the same molecule, in the test with human α-CGRP 1-37 (WT), the Kd came to 6.75 nM and the koff is 0.00108 s⁻¹.

In the test with rat α-CGRP (1-37), B24 showed a dissociation constant (Kd) of 9280 nM and a koff of 0.167 s⁻¹. In the test with human α-CGRP 1-37 (WT), this molecule gave a Kd of 8.19 nM and a dissociation rate constant (koff) of 0.00131 s⁻¹.

In the test with rat α-CGRP (1-37), B25 returned a Kd of 794 nM and a koff of 0.0143 s⁻¹. Further, in the test with human α-CGRP 1-37 (WT), the affinity, expressed as Kd, was 2.98 nM and the koff turned out to be 0.000477 s⁻¹.

Turning to B26, the dissociation constant Kd in the test with rat α-CGRP (1-37) stood at 1040 nM; in the test with human α-CGRP 1-37 (WT) it was 7.25 nM. Also, the dissociation rate constant (koff) with rat α-CGRP (1-37) came out at 0.0187 s⁻¹; with human α-CGRP 1-37 (WT), 0.00116 s⁻¹.

Regarding B27, in the test with rat α-CGRP (1-37), the Kd was determined as 219 nM and the koff came to 0.00395 s⁻¹. In the test with human α-CGRP 1-37 (WT), binding was put at a Kd of 2.5 nM and the koff was 0.0004 s⁻¹.

With B28, the binding result with antibody G1 Fab fragment [3] is on record as “no binding (tested: 10 µM)”.
